The values that follow come from article PMC9249833.

The target of the experiment is HisTmod (His-tagged recombinant AjTmod) (Apostichopus japonicus). Put plainly: MST; Monolith NT.115; His-tagged AjTmod labelled with NT-647-NHS (about 5 uM), 16 serial concentrations of the unlabelled partner; 50 mM Tris-HCl pH 8.0, 0.02% Tween 20; 25 °C; three repeats.

The Kd is the concentration at which binding is half-saturated. Consider “GSTFliC fusion protein (GST-fused Vibrio splendidus AJ01 flagellin C) (natural protein)”, for which the Kd stood at 8.6 nM.
